Reference: US20240239884A1 (Merck Sharp & Dohme, published 2024)

Columns and labels:
[1] = biological target: T1, human IL-23 (human, UniProt P29460 23-328); assay: equilibrium binding ELISA on plates coated with human IL-23; potency against reference material; storage at 5 C, 6 months
T1 construct: also called human IL-23 cytokine; human IL-23 protein
T1 sequence 1: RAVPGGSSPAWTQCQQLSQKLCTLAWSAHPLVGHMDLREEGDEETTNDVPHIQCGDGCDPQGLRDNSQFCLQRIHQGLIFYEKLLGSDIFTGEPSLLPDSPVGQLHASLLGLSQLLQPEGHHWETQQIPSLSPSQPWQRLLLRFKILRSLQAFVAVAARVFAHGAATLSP
T1 sequence 2: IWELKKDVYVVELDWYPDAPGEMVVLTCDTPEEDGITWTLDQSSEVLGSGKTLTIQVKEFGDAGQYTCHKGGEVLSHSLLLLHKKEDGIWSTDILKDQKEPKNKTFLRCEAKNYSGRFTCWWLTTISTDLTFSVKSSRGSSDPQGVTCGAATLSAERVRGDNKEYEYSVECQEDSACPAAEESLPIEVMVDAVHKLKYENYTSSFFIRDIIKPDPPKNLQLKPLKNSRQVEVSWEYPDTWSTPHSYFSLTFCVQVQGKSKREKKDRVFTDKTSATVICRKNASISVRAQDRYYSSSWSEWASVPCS
Procedure: (§1) The affinity of hum13B8-b in the formulations of the present invention for human IL-23 is assessed in an equilibrium binding ELISA, where serial dilutions of reference material and test samples are applied to assay plates coated with human IL-23 cytokine. This assay may be used, for example, to assess retention of biological activity in various potential therapeutic formulations. Relative potency of the test sample is assessed by comparison of the dose response curve of the test sample to the dose response curve of reference material and calculated as percent of reference.
(§2) ELISAs are performed by methods well known in the art. Briefly, serial dilutions of hum13B8-b in a formulation of the present invention are added to wells of a microtiter plate that had been previously coated with human IL-23 protein and then blocked. After an incubation period, wells are washed and a peroxidase-conjugated goat anti-human IgG (Fc) detection antibody reagent is added. Wells are again washed, and a chemiluminescent peroxidase substrate is added. Signal is read out by chemiluminescence. […] Relative biological potency is calculated by comparing results obtained with test samples with a standard curve based on signal levels obtained with a reference sample. […]

[2] = biological target: T1, human IL-23; assay: equilibrium binding ELISA on plates coated with human IL-23; potency against reference material; storage at 5 C, 18 months (second Binding ELISA row)
Procedure: as §1, §2

[3] = biological target: T1, human IL-23; assay: equilibrium binding ELISA on plates coated with human IL-23; potency against reference material; storage condition 25H table, initial
Procedure: as §1, §2

[4] = biological target: T1, human IL-23; assay: equilibrium binding ELISA on plates coated with human IL-23; potency against reference material; storage at 5 C, 12 months (second Binding ELISA row)
Procedure: as §1, §2

[5] = biological target: T1, human IL-23; assay: equilibrium binding ELISA on plates coated with human IL-23; potency against reference material; storage at RH4 (40 C/75% RH), 6 months
Procedure: as §1, §2

[6] = biological target: T1, human IL-23; assay: equilibrium binding ELISA on plates coated with human IL-23; potency against reference material; storage at 25H (25 C/60% RH), 12 months (second Binding ELISA row)
Procedure: as §1, §2

[7] = biological target: T1, human IL-23; assay: equilibrium binding ELISA on plates coated with human IL-23; potency against reference material; storage at 5 C, initial
Procedure: as §1, §2

[8] = biological target: T1, human IL-23; assay: equilibrium binding ELISA on plates coated with human IL-23; potency against reference material; storage at 5 C, 24 months (second Binding ELISA row)
Procedure: as §1, §2

[9] = biological target: T1, human IL-23; assay: equilibrium binding ELISA on plates coated with human IL-23; potency against reference material; storage condition RH4 table, initial
Procedure: as §1, §2

[10] = biological target: T1, human IL-23; assay: equilibrium binding ELISA on plates coated with human IL-23; potency against reference material; storage at 25H (25 C/60% RH), 6 months
Procedure: as §1, §2

Binding ELISA Potency relative to control [%] [1]: 96%
Binding ELISA Potency relative to control [%] [2]: 100%
Binding ELISA Potency relative to control [%] [3]: 112%
Binding ELISA Potency relative to control [%] [4]: 98%
Binding ELISA Potency relative to control [%] [5]: 104%
Binding ELISA Potency relative to control [%] [6]: 105%
Binding ELISA Potency relative to control [%] [7]: 112%
Binding ELISA Potency relative to control [%] [8]: 103%
Binding ELISA Potency relative to control [%] [9]: 112%
Binding ELISA Potency relative to control [%] [10]: 99%
B1: humanized anti-IL-23p19 antibody 13B8-b (antibody, human IgG1, kappa, V domains shown)
VH: QVQLVQSGAEVKKPGASVKVSCKASGYIFITYWMTWVRQAPGQGLEWMGQIFPASGSADYNEKFEGRVTMTTDTSTSTAYMELRSLRSDDTAVYYCARGGGGFAYWGQGTLVTVSS
VL: DIQMTQSPSSLSASVGDRVTITCRTSENIYSYLAWYQQKPGKAPKLLIYNAKTLAEGVPSRFSGSGSGTDFTLTISSLQPEDFATYYCQHHYGIPFTFGQGTKVEIKR
notes: Made in CHO cells; Tested as a stored formulation (10 mM histidine pH 6.0, 7% sucrose, 0.05% polysorbate 80, about 100 mg/ml); also called hum13B8-b; anti-IL-23p19 mAb hum13B8-b
